# Experimental data as given in US20070243170A1 (UNIVERSITY OF CHICAGO, published 2007).
# What was measured:
# Nectin-1 (HveC) = Nectin-1 (HveC) (UniProt Q15223); assay: cell-based or functional assay
# HveA (formerly HveM) = HveA (formerly HveM) (UniProt Q92956); assay: cell-based or functional assay
# [1] = molecular target: wild-type gD1-60 polypeptide (residues 1-60 of mature gD; plasmid pGG5414) (herpes simplex virus 1, UniProt P36318 26-85); assay: co-immunoprecipitation with anti-Myc from HEK293 cells co-transfected with pGG5417+pGG5414
molecule,measurement,setting,value
"IL13-gD chimeric glycoprotein D of recombinant virus R5141 (IL13 in the place of gD residues 1-32, V34S)",Replication of R5141 in J-Nectin cells (virus yield),Nectin-1 (HveC),70
same,Replication of R5141 in J-HveA cells (virus yield),HveA (formerly HveM),40
"IL13-gD chimeric glycoprotein D of recombinant virus R5144 (IL13 in the place of gD residues 1-32, V37S)",Replication of R5144 in J-Nectin cells (virus yield),Nectin-1 (HveC),50
same,Replication of R5144 in J-HveA cells (virus yield),HveA (formerly HveM),300
"gD219-314 polypeptide (mature gD residues 219-314, without transmembrane and cytoplasmic domains, Myc epitope at the C-terminus; plasmid pGG5417) (other, Expressed in HEK293 cells under the CMV promoter; also called C-terminal domain of gD; R5417) MLPRFIPENQRTVAVYSLKIAGWHGPKAPYTSTLLPPELSETPNATQPELAPEDPEDSALLEDPVGTVVPQIPPNWHIPSIQDAATPYHPPATPNN",binding result,[1],no binding
